Measurements from the supplement of paper PMC9732359.
± gives the uncertainty stated by the source.

Assay: protein stability index of a GFP-peptide fusion (yeast GPS) (PSI 1-4); higher = more stable; sorted into four equal gates, so the index is relative within each strain
Method in brief: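 For each peptide, the protein stability index sums the read frequency in every gate after multiplying it by the gate number. Read frequencies came from plasmids that were PCR-amplified from each gate and Illumina-sequenced, with reads assigned to strains by barcodes. The gates were four equal bins of GFP/Cherry fluorescence ratio applied to mid-log yeast in leucine-free medium carrying a pooled library of tiled 17-residue yeast protein peptides fused downstream of GFP on a Cherry-expressing plasmid.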

Sequence | protein stability index (doa10∆) | protein stability index (pdr5∆) | protein stability index (san1∆) | protein stability index (ubr1∆)
LKNPEIFQRVGIKPPKG [RPT4] | 2.13 ± 0.12 | 2.18 ± 0.22 | 2.45 ± 0.12 | 2.31 ± 0.18
TDRITRLFIKPGQKMSL [BRN1] | 3.22 ± 0.11 | 2.9 ± 0.11 | 2.97 ± 0.14 | 3.17 ± 0.1
SVIVKFHSEPDRDENWI [LIN1] | 2.69 ± 0.072 | 3.08 ± 0.071 | 2.96 ± 0.056 | 2.75 ± 0.044
TVELQVGLKNYDPQRDK [RPL1A] | 3.05 ± 0.091 | 3.12 ± 0.082 | 3.12 ± 0.094 | 3.18 ± 0.076
KRPIESGTSSDPDTKKV [YIL149C/MLP2] | 3.35 ± 0.079 | 3.2 ± 0.053 | 3.2 ± 0.062 | 3.29 ± 0.072
IRYNSVEIQEVPRTADR [RPC82] | 2.52 ± 0.063 | 2.64 ± 0.044 | 2.88 ± 0.079 | 2.79 ± 0.048
TTSEATANDRQINNVHL [RPN4] | 2.97 ± 0.11 | 2.91 ± 0.079 | 2.49 ± 0.087 | 2.7 ± 0.097
FRTDMLQVADKFFRVKY [SMC3] | 1.92 ± 0.068 | 2.49 ± 0.066 | 1.77 ± 0.076 | 2.12 ± 0.051
QQNPKFLQSQRQQQQRS [SWI1] | 2.47 ± 0.06 | 1.94 ± 0.063 | 2.67 ± 0.057 | 2.05 ± 0.067
SREIAQPSSSRYNGGND [SMB1] | 3.19 ± 0.087 | 3.22 ± 0.071 | 3.22 ± 0.053 | 3.31 ± 0.055
LEQMELSILKGDYSQAT [RPN5] | 2.86 ± 0.079 | 2.91 ± 0.068 | 2.94 ± 0.11 | 2.64 ± 0.062
ISSRTYGQRAVLKFAAH [RPS0B] | 1.78 ± 0.064 | 2.22 ± 0.095 | 2.26 ± 0.09 | 1.64 ± 0.069
SLFSKIKTFFTQKDSAR [YAR002W/NUP60] | 2.21 ± 0.091 | 2.84 ± 0.083 | 2.42 ± 0.09 | 2.68 ± 0.087
QGSMSERPPYILNSYGV [SIR2] | 2.73 ± 0.072 | 3.03 ± 0.084 | 3 ± 0.066 | 2.87 ± 0.045
HVESDKITAKTQHEEEE [IRR1] | 2.85 ± 0.064 | 2.96 ± 0.088 | 3.09 ± 0.092 | 2.81 ± 0.11
IVEADEKKGIVQASVTS [RET1] | 2.66 ± 0.15 | 2.6 ± 0.11 |  | 1.7 ± 0.086
QRIIADLSADKPTSPFI [SRB8] | 2.78 ± 0.041 | 2.81 ± 0.054 | 2.82 ± 0.043 | 2.94 ± 0.048
KNLNPASSSPSSTDFST [ECM29] | 3.11 ± 0.049 | 2.81 ± 0.045 | 2.97 ± 0.056 | 2.91 ± 0.032
LGKKKNVKEEETVAKSK [RPS8A] | 3.22 ± 0.052 | 3.31 ± 0.05 | 3.335 ± 0.031 | 3.25 ± 0.039
SVLSSKPGSKPEKTSTE [SIR3] | 3.17 ± 0.12 | 2.7 ± 0.19 | 3.15 ± 0.078 | 3.2 ± 0.12
PLPPRIDPSVTMMTVEE [RPT1] | 2.16 ± 0.08 | 1.9 ± 0.076 | 2.12 ± 0.17 | 1.88 ± 0.062
HVVTREKGPQVCAKLFG [RPO21] | 3.24 ± 0.082 | 2.81 ± 0.079 | 2.95 ± 0.097 | 3.08 ± 0.1
KPTEVNDSENNSSEEDK [ITC1] | 2.82 ± 0.058 | 2.74 ± 0.082 | 3.17 ± 0.052 | 3.3 ± 0.067
ANTGGGLFGANSNSNSG [YGL172W/NUP49] | 2.11 ± 0.11 | 2.74 ± 0.077 | 1.76 ± 0.17 | 2.22 ± 0.14
QWTGGRGGGHHSFEDAH [FAS1] | 3.21 ± 0.24 | 3.47 ± 0.2 |  | 
IDRNSTILYLNVFHGLC [IRR1] | 2.41 ± 0.14 | 1.52 ± 0.084 | 2.14 ± 0.25 | 2.78 ± 0.17

Sequence | protein stability index (doa10∆) | protein stability index (pdr5∆) | protein stability index (san1∆) | protein stability index (ubr1∆)
NKDLSELVIRLEKDAAD [YIL149C/MLP2] | 3.05 ± 0.078 | 3.15 ± 0.084 | 3.2 ± 0.061 | 3.15 ± 0.069
FEFGNMKATSNTLEEFE [FAS2] | 3.18 ± 0.054 | 3.4 ± 0.08 | 3.13 ± 0.061 | 3.23 ± 0.058
KLELINRYAYVLSSLMF [LRP1] | 2.21 ± 0.05 | 2.31 ± 0.049 | 1.94 ± 0.064 | 2.65 ± 0.046
IYQTLIALNLDTTVNDC [SNF2] | 2.19 ± 0.035 | 2.53 ± 0.04 | 2.25 ± 0.054 | 2.35 ± 0.033
LHNFESVAPTKQREIVK [NUT1] | 2.71 ± 0.084 | 2.55 ± 0.065 | 2.7 ± 0.053 | 2.6 ± 0.044
DNSVEQGRRLGESIMSE [MCD1] |  | 3.41 ± 0.22 |  | 3.33 ± 0.12
KCTAEGIKVSLLGIFDD [RPC25] | 2.19 ± 0.077 | 1.69 ± 0.088 | 2.27 ± 0.099 | 2.04 ± 0.061
PKMKDEEYDDDDDNSNV [SNF2] | 3.4 ± 0.095 | 3.37 ± 0.16 | 3.23 ± 0.072 | 3.27 ± 0.15
ASKKSGGDVVKFQKLLQ [SMC4] | 3.42 ± 0.15 | 3.64 ± 0.12 | 3.19 ± 0.13 | 3.4 ± 0.17
EIEVDEMEVDAEGEEVE [RPN1] | 3.52 ± 0.084 | 3.68 ± 0.12 | 3.52 ± 0.082 | 3.49 ± 0.067
YSTLKELLEYSDDIAEN [YCG1] | 2.81 ± 0.048 | 2.84 ± 0.053 | 2.74 ± 0.053 | 2.59 ± 0.04
KVLTALSRLQKSGRING [SMC4] |  | 3.43 ± 0.2 | 3.29 ± 0.083 | 3.43 ± 0.19
MASGSTTFTKVAAKWNT [PRP8] | 2.58 ± 0.072 | 2.52 ± 0.069 | 2.51 ± 0.084 | 2.93 ± 0.07
ENLNRNWRGREHWKVRN [BRN1] | 3.57 ± 0.11 | 3.33 ± 0.14 | 3.37 ± 0.063 | 3.5 ± 0.08
LQFKSIREIDVAGGKKA [RPS7A] | 1.45 ± 0.14 | 1.49 ± 0.11 |  | 1.21 ± 0.077
QARIILNHILEKSTQLQ [YGR119C/NUP57] | 2.83 ± 0.12 | 3.09 ± 0.072 | 2.63 ± 0.12 | 2.79 ± 0.043
EIENATKDIFPLQNIHV [RPS1A] | 2.1 ± 0.086 | 2.36 ± 0.27 | 1.11 ± 0.29 | 2.25 ± 0.083
NILTTHLSHPGTNKDMI [ECM29] | 2.61 ± 0.073 | 2.2 ± 0.067 | 2.15 ± 0.09 | 2.05 ± 0.044
MPLKILLATKQHDSSAN [CSN12] | 2.48 ± 0.076 | 1.97 ± 0.044 | 2.09 ± 0.063 | 2.27 ± 0.044
IAEVGNKRWKVDIGGKQ [RRP4] | 3.62 ± 0.19 | 3.32 ± 0.14 | 3.22 ± 0.11 | 3.36 ± 0.061
LSDYNIQKESTLHLVLR [RPS31] | 2.78 ± 0.08 | 2.72 ± 0.051 | 2.23 ± 0.065 | 2.58 ± 0.058
RQKNVIHRAARPTRPDK [RPL15A] | 3.31 ± 0.17 | 3.69 ± 0.16 | 3.27 ± 0.066 | 3.24 ± 0.2
SGYNQEDSMIMNQSSID [RPB2] | 2.46 ± 0.11 | 2.67 ± 0.12 |  | 2.84 ± 0.067
MSYVVRILSTLDRELLK [RPT3] | 2.31 ± 0.098 | 2.24 ± 0.1 | 2.55 ± 0.057 | 2.88 ± 0.094
TDKPFSSTQDVILRKIS [CSI1] | 2.87 ± 0.13 | 3.31 ± 0.13 | 2.92 ± 0.071 | 3.05 ± 0.06
